Laboratory results reported in patent US20230012273A1 (Boehringer Ingelheim, published 2023).

T1: cynomolgus SIRPα extracellular domain + His-tag (XP_015313155) (cynomolgus monkey)
T1 construct: also called CySIRPα XP_015313155; cynoSIRPα
T1 chain: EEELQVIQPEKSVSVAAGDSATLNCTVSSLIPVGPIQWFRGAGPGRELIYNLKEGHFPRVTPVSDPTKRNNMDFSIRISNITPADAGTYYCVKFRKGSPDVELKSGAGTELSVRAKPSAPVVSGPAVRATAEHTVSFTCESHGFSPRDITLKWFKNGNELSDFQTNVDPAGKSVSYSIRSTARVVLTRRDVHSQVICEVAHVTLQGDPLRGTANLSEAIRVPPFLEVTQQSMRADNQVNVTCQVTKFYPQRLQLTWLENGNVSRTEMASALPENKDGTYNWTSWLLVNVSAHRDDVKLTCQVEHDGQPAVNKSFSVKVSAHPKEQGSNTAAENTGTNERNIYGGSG

T2: cynomolgus SIRPα extracellular domain + His-tag (EGM_02252) (cynomolgus monkey)
T2 construct: also called CySIRPα EGM_02252; cynoSIRPα
T2 chain: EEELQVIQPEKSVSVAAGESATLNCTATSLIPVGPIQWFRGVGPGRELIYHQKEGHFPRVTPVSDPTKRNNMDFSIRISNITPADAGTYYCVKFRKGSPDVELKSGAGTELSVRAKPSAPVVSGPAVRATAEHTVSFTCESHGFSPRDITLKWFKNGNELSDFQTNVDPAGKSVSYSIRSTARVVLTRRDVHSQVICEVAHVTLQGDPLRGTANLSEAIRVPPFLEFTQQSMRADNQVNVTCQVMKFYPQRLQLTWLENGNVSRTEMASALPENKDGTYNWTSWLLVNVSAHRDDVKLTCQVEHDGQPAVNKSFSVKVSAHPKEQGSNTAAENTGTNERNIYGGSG

T3: cynomolgus SIRPγ extracellular domain + His-tag (XP_005568591) (cynomolgus monkey, UniProt Q9P1W8 29-359 (human entry))
T3 construct: also called Cyno SIRPγ; cynoSIRPγ
T3 chain: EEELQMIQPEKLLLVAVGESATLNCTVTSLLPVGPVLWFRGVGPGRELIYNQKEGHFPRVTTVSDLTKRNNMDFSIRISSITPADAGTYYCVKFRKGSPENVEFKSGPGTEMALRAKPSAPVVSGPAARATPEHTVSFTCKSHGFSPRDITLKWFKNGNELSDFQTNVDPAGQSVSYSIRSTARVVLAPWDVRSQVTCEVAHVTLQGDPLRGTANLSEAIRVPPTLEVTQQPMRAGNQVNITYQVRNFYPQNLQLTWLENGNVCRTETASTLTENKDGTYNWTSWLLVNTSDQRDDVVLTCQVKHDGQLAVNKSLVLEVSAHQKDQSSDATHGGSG

T4: cynomolgus SIRPβ1v3 extracellular domain + His-tag (XP_005568593) (cynomolgus monkey)
T4 construct: also called Cyno SIRPβ1v3; cynoSIRPβ1v3
T4 chain: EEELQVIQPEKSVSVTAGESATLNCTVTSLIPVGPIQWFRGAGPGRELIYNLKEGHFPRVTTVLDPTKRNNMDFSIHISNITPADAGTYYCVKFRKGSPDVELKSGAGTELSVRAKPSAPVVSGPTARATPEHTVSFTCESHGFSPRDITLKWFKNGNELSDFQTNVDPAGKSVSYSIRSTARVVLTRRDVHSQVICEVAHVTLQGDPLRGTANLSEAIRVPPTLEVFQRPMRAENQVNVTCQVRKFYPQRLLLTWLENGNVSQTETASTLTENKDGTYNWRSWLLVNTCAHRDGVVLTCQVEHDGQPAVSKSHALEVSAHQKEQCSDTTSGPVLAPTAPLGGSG

T5: cynomolgus SIRPβ1 extracellular domain + His-tag (XP_005568598) (cynomolgus monkey)
T5 construct: also called Cyno SIRPβ1; cynoSIRPβ1
T5 chain: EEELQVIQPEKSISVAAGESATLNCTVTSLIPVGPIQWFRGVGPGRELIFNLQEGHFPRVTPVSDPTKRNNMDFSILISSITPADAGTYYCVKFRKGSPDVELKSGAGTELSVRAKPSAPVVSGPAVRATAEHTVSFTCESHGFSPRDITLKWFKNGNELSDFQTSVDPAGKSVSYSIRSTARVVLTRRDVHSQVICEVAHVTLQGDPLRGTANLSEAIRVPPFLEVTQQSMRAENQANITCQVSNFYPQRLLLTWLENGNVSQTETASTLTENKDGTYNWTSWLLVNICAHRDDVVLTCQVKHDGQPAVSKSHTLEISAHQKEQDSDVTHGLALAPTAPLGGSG


How the values were obtained:
Assay in all cases: SPR, Ab captured, ECD-His analyte
[1] = target: T6, human SIRPγ extracellular domain + His-tag (NP_061026.2) (human, UniProt Q9P1W8 29-360)
T6 construct: also called hSIRPγ; HuSIRPγ
Method: (§1) The binding affinity of anti-SIRPα antibodies to the various SIRPα analytes is determined by surface plasmon resonance (SPR) using a ProteOn XPR36 (Bio-Rad). The running buffer for this experiment and all dilutions (except where stated) are done in 1×HBS-EP+. […] The sensorchip is deactivated with 1M ethanolamine HCl for 420 sec at a flowrate of 10 μl/min.
(§2) The analyte is injected over the captured antibody for 300 sec at a flowrate of 30 μl/min. The dissociation is done for 600 sec. Two-fold serial dilutions of each SIRP protein (Extracellular Domain+His-Tag) are injected as analyte with the highest concentrations indicated in table 36 below.

[2] = target: T7, human SIRPβ1 extracellular domain + His-tag (NP_006056.2) (human, UniProt O00241 30-371)
T7 construct: also called hSIRPβ1; HuSIRPβ1
Method: as §1, §2

[3] = target: T8, human SIRPβL/SIRPβ1v3 extracellular domain + His-tag (NP_001129316.1) (human, UniProt Q5TFQ8 30-371)
T8 construct: also called hSIRPβ1v3; HuSIRPβ1v3
Method: as §1, §2

[4] = target: T1, cynomolgus SIRPα extracellular domain + …
Method: as §1, §2

[5] = target: T2, cynomolgus SIRPα extracellular domain + …
Method: as §1, §2

[6] = target: T3, cynomolgus SIRPγ extracellular domain + …
Method: as §1, §2

[7] = target: T4, cynomolgus SIRPβ1v3 extracellular …
Method: as §1, §2

[8] = target: T5, cynomolgus SIRPβ1 extracellular domain …
Method: as §1, §2

T7 sequence (O00241 other isoform, or with tags, fused parts or gaps): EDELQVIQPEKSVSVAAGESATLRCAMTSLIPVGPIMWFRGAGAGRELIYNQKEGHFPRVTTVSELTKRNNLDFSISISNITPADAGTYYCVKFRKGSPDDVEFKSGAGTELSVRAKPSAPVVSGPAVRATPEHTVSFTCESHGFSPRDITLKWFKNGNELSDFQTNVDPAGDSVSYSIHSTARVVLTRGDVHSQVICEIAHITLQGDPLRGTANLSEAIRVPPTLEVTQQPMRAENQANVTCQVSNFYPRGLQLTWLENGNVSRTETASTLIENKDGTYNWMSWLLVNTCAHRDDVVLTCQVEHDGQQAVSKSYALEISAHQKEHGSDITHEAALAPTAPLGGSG
T6 sequence (Q9P1W8 29-360): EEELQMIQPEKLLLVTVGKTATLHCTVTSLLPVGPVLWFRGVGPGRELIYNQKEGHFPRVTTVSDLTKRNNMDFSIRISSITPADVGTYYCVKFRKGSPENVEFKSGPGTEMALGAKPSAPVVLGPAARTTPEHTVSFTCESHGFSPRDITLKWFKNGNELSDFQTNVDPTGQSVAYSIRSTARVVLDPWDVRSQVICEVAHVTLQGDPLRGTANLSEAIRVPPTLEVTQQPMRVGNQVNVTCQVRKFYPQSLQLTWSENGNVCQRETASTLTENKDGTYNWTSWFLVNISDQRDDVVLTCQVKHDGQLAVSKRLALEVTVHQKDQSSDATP
T8 sequence (Q5TFQ8 other isoform, or with tags, fused parts or gaps): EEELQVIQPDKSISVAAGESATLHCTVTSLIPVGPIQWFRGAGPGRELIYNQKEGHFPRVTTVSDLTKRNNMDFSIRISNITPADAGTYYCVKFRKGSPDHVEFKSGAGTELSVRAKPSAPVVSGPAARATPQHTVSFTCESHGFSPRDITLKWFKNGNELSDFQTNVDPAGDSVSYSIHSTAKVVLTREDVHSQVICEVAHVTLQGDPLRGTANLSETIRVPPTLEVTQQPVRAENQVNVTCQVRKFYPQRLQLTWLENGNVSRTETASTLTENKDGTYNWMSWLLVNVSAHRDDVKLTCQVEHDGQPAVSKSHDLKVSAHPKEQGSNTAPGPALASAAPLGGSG

Binder | binding result [1] | binding result [2] | binding result [3] | Kd [4] [nM] | Kd [5] [nM] | binding result [6] | Kd [7] [nM] | binding result [8] | Kd [2] [nM]
Antibody A9 (antibody, human IgG1, kappa, L234A L235A, V domains shown) VH: EVQLVESGGGLVQPGGSLRLSCAASGFTLSSYDMHWVRQAPGKGLEWVSAIGTAGDTYYTGSVKGRFTISRENAKNSLYLQMNSLRADDTAVYYCVRGGVWDDAFDIWGQGTMVTVSS VL: DIQMTQSPSSLSASVGDRVTITCRASQDINNYLAWFQQKPGKAPKSLIYTASSLHSGVPSKFSGSGSGTDFTLTISSLQPEDFATYYCQQYVSYPYTFGQGTKLEIKR | no binding (tested: 1000 nM) | – | no binding (tested: 100 nM) | 156 | 227 | no binding (tested: 1000 nM) | 257 | no binding (tested: 1000 nM) | 58.8
Antibody A3 (antibody, human IgG1, kappa, L234A L235A, V domains shown) VH: EVQLVESGGGLVQPGGSLRLSCAASGFTLSSYDMHWVRQATGKGLEWVSAIGTAGDTYYTGSVKGRFTISRENAKNSLYLQMNSLRASDTAVYYCVRGGVWDDAFDIWGQGTMVTVSS VL: DIQMTQSPSSLSASVGDRVTITCRASQGINNYAAWFQQKPGKAPKSLIYTASSLHSGVPSKFSGSGSGTDFTLTISSLQPEDFATYYCQQYVSYPYTFGQGTKLEIKR | no binding (tested: 1000 nM) | – | no binding (tested: 100 nM) | 438 | 571 | no binding (tested: 1000 nM) | 564 | no binding (tested: 1000 nM) | 70.3
Antibody A12 (antibody, human IgG1, kappa, L234A L235A, V domains shown) VH: EVQLVESGGGLVQPGGSLRLSCAASGFTLSSYDMHWVRQATGKGLEWVSAIGTAGDTYYTGSVKGRFTISRENAKNSLYLQMNSLRASDTAVYYCVRGGVWDDAFDIWGQGTMVTVSS VL: DIQMTQSPSSLSASVGDRVTITCRASQDINNYLAWFQQKPGKAPKSLIYTASSLHSGVPSKFSGSGSGTDFTLTISSLQPEDFATYYCQQYVSYPYTFGQGTKLEIKR | no binding (tested: 1000 nM) | – | no binding (tested: 100 nM) | 182 | 249 | no binding (tested: 1000 nM) | 279 | no binding (tested: 1000 nM) | 64.4

The next lines start with the values.

binding result [1] | binding result [2] | binding result [3] | Kd [4] [nM] | Kd [5] [nM] | binding result [6] | Kd [7] [nM] | binding result [8] | Kd [2] [nM] | Binder
no binding (tested: 1000 nM) | no binding (tested: 1000 nM) | no binding (tested: 100 nM) | 369 | 543 | no binding (tested: 1000 nM) | 557 | no binding (tested: 1000 nM) | – | Antibody A1 (antibody, human IgG1, kappa, L234A L235A, V domains shown, also called Antibody Al) VH: EVQLVESGGGLVQPGGSLRLSCAASGFTLSSYDMHWVRQAPGKGLEWVSAIGTAGDTYYTGSVKGRFTISRENAKNSLYLQMNSLRADDTAVYYCVRGGVWDDAFDIWGQGTMVTVSS VL: DIQMTQSPSSLSASVGDRVTITCRASQGINNYAAWFQQKPGKAPKSLIYTASSLHSGVPSKFSGSGSGTDFTLTISSLQPEDFATYYCQQYVSYPYTFGQGTKLEIKR
no binding (tested: 1000 nM) | – | no binding (tested: 100 nM) | 366 | 538 | no binding (tested: 1000 nM) | 469 | no binding (tested: 1000 nM) | 65.1 | Antibody A6 (antibody, human IgG1, kappa, L234A L235A, V domains shown) VH: EVQLVESGGGLVQPGGSLRLSCAASGFTLSSYDMHWVRQAPGKGLEWVSAIGTAGDTYYTGSVKGRFTISRENAKNSLYLQMNSLRAEDTAVYYCVRGGVWDDAFDIWGQGTMVTVSS VL: DIQMTQSPSSLSASVGDRVTITCRASQGINNYAAWFQQKPGKAPKSLIYTASSLHSGVPSKFSGSGSGTDFTLTISSLQPEDFATYYCQQYVSYPYTFGQGTKLEIKR
no binding (tested: 1000 nM) | – | no binding (tested: 100 nM) | 350 | 535 | no binding (tested: 1000 nM) | 449 | no binding (tested: 1000 nM) | 69.6 | Antibody A8 (antibody, human IgG1, kappa, L234A L235A, V domains shown) VH: EVQLVESGGGLVQPGGSLRLSCAASGFTLSSYDMHWVRQAPGKGLEWVSAIGTAGDTYYTGSVKGRFTISRENAKNSLYLQMNSLRAGDTAVYYCVRGGVWDDAFDIWGQGTMVTVSS VL: DIQMTQSPSSLSASVGDRVTITCRASQGINNYAAWFQQKPGKAPKSLIYTASSLHSGVPSKFSGSGSGTDFTLTISSLQPEDFATYYCQQYVSYPYTFGQGTKLEIKR
no binding (tested: 1000 nM) | – | no binding (tested: 100 nM) | 424 | 584 | no binding (tested: 1000 nM) | 552 | no binding (tested: 1000 nM) | 77.5 | Antibody A2 (antibody, human IgG1, kappa, L234A L235A, V domains shown) VH: EVQLVESGGGLVQPGGSLRLSCAASGFTLSSYDMHWVRQATGKGLEWVSAIGTAGDTYYTGSVKGRFTISRENAKNSLYLQMNSLRAADTAVYYCVRGGVWDDAFDIWGQGTMVTVSS VL: DIQMTQSPSSLSASVGDRVTITCRASQGINNYAAWFQQKPGKAPKSLIYTASSLHSGVPSKFSGSGSGTDFTLTISSLQPEDFATYYCQQYVSYPYTFGQGTKLEIKR
no binding (tested: 1000 nM) | – | no binding (tested: 100 nM) | 389 | 609 | no binding (tested: 1000 nM) | 494 | no binding (tested: 1000 nM) | 72.2 | Antibody A7 (antibody, human IgG1, kappa, L234A L235A, V domains shown) VH: EVQLVESGGGLVQPGGSLRLSCAASGFTLSSYDMHWVRQATGKGLEWVSAIGTAGDTYYTGSVKGRFTISRENAKNSLYLQMNSLRAGDTAVYYCVRGGVWDDAFDIWGQGTMVTVSS VL: DIQMTQSPSSLSASVGDRVTITCRASQGINNYAAWFQQKPGKAPKSLIYTASSLHSGVPSKFSGSGSGTDFTLTISSLQPEDFATYYCQQYVSYPYTFGQGTKLEIKR
